Target: T1, ubiquitin-PA (C-terminally propargylated ubiquitin 1-75) (human, UniProt P0CG48 1-75, C-terminal propargylamide (PA))
T1 construct: also called Ub-PA; wildtype Ub-PA; not shown: intein (from the vector pTXB1), C-terminal, cleaved
Experiment: crystal structure; covalent complex: 1.2 mM Wc-VTD1 incubated with 760 µM ubiquitin-PA for 18 h at 4 °C, unreacted proteins removed by SEC; crystals in 0.1 M BisTris propane pH 7.0, 2.0 M ammonium citrate tribasic at 20 °C
Conditions: both partners purified

B1: Wc-VTD1 catalytic domain (aa279-494) (enzyme)
chain: KMPEEEQDSLAAFSRIEANITQYDPLLDNAGKSACTCICLKAAEMLLEASPDQVNAGLIDDILVEGVADYNRFKVGGVVEHTSVENYELNTFELKRLEFRDVDNPFSAEGNPYAGTLDSFAKMMEKASDSKDLPKPVALVMTKSNMTITIVIRPDGKYWLFDPHGTNGKGAYIESCNTDELIKKIKEIFPKTSYPGMTEDENLGFNSFEAYAVRRS
notes: also called wcw_1294; Waddlia VTD1; source: E. coli Rosetta (DE3) pLysS, purified (HisTrap, SEC)
binding result: binds
